Measurements taken from PMC7402283, “Characterizing the Fused TvG6PD::6PGL Protein from the Protozoan Trichomonas vaginalis, and Effects of the NADP^+ Molecule on Enzyme Stability” (International Journal of Molecular Sciences, 2020).
Each block holds one molecule with its values, some of them ahead of it.

Columns and labels:
[1] = biological target: fused glucose-6-phosphate dehydrogenase-phosphogluconolactonase protein from Trichomonas vaginalis (TvG6PD::6PGL) (Trichomonas vaginalis); test: SEC; Sephacryl 400 (16/60) gel filtration column, 50 mM phosphate buffer pH 7.35, flow 0.3 mL/min, calibrated with Bio-Rad gel filtration standards; single peak at 59.9 mL; no monomer, dimer or larger aggregates seen
TvG6PD::6PGL = biological target: T1, TvG6PD::6PGL (Trichomonas vaginalis, UniProt A2EC78); test: intrinsic tryptophan fluorescence quenching titration, excitation […] nm; type: binding
T1 construct: gene TVAG_414060; full-length fused protein, 716 aa, G6PD N-terminal (1-483) and 6PGL C-terminal, 81,692 Da; pET3a-HisTEV, N-terminal His6 tag removed by TEV protease; E. coli BL21(DE3) zwf-deleted; native tetramer
T1 sequence (A2EC78 1-716): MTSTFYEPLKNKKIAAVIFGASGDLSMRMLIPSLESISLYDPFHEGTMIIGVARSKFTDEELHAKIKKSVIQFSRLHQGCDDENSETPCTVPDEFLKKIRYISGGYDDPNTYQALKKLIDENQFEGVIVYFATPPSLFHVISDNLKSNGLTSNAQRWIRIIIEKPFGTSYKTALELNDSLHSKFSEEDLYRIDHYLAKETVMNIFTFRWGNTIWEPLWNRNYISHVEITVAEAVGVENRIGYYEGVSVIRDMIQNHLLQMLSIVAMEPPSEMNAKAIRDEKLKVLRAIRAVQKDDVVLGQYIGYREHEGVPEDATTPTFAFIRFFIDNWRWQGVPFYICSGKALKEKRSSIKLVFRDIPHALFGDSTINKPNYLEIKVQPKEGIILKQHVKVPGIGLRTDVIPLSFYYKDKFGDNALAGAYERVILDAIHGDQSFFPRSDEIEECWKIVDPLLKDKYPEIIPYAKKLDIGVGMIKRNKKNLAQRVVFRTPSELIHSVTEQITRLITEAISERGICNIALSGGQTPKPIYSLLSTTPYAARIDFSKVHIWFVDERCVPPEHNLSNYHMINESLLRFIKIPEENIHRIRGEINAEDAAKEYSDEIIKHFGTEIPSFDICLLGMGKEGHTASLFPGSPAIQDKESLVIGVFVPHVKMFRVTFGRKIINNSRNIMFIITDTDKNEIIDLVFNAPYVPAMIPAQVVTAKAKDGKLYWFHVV

purified protein [2] = substrate: NC(=O)c1ccc[n+]([C@@H]2O[C@H](COP(=O)(O)OP(=O)(O)OC[C@H]3O[C@@H](n4cnc5c(N)ncnc54)[C@H](OP(=O)(O)O)[C@@H]3O)[C@@H](O)[C@H]2O)c1; test: purified protein; type: biochemical, Trichomonas vaginalis; conditions: G6P fixed at 1 mM, pH 8.0, apparent Km, catalytic site
purified protein [3] = substrate: O=P(O)(O)OC[C@H]1OC(O)[C@H](O)[C@@H](O)[C@@H]1O; test: purified protein; type: biochemical, Trichomonas vaginalis; conditions: NADP+ fixed at 150 uM, pH 8.0, apparent Km

stoichiometry N [1]: 4
Molecule: fused glucose-6-phosphate dehydrogenase-phosphogluconolactonase protein from Trichomonas vaginalis (TvG6PD::6PGL) (enzyme)

Molecule: NC(=O)c1ccc[n+]([C@@H]2O[C@H](COP(=O)(O)OP(=O)(O)OC[C@H]3O[C@@H](n4cnc5c(N)ncnc54)[C@H](OP(=O)(O)O)[C@@H]3O)[C@@H](O)[C@H]2O)c1 [NADP^+]
Kd (TvG6PD::6PGL): 0.031 µM

B1: TvG6PD::6PGL (Trichomonas vaginalis G3) (protein)
chain: MTSTFYEPLKNKKIAAVIFGASGDLSMRMLIPSLESISLYDPFHEGTMIIGVARSKFTDEELHAKIKKSVIQFSRLHQGCDDENSETPCTVPDEFLKKIRYISGGYDDPNTYQALKKLIDENQFEGVIVYFATPPSLFHVISDNLKSNGLTSNAQRWIRIIIEKPFGTSYKTALELNDSLHSKFSEEDLYRIDHYLAKETVMNIFTFRWGNTIWEPLWNRNYISHVEITVAEAVGVENRIGYYEGVSVIRDMIQNHLLQMLSIVAMEPPSEMNAKAIRDEKLKVLRAIRAVQKDDVVLGQYIGYREHEGVPEDATTPTFAFIRFFIDNWRWQGVPFYICSGKALKEKRSSIKLVFRDIPHALFGDSTINKPNYLEIKVQPKEGIILKQHVKVPGIGLRTDVIPLSFYYKDKFGDNALAGAYERVILDAIHGDQSFFPRSDEIEECWKIVDPLLKDKYPEIIPYAKKLDIGVGMIKRNKKNLAQRVVFRTPSELIHSVTEQITRLITEAISERGICNIALSGGQTPKPIYSLLSTTPYAARIDFSKVHIWFVDERCVPPEHNLSNYHMINESLLRFIKIPEENIHRIRGEINAEDAAKEYSDEIIKHFGTEIPSFDICLLGMGKEGHTASLFPGSPAIQDKESLVIGVFVPHVKMFRVTFGRKIINNSRNIMFIITDTDKNEIIDLVFNAPYVPAMIPAQVVTAKAKDGKLYWFHVV
notes: full-length fused protein, 716 aa, G6PD N-terminal (1-483) and 6PGL C-terminal, 81,692 Da; pET3a-HisTEV, N-terminal His6 tag removed by TEV protease; E. coli BL21(DE3) zwf-deleted; native tetramer
Km (purified protein [2]): 27 µM | kcat (purified protein [2]): 147 s⁻¹ | Km (purified protein [3]): 210 µM | kcat (purified protein [3]): 147 s⁻¹
